Kd data for 2 molecules are collected here from publication PMC9482095.

Read-outs that look alike come from different tables or passages of the source.

Series [1] addresses T1, FOXO1 FKH L183P (UniProt Q12778 151-265, L183P). Briefly: EMSA.
Series [2] concerns the target T1, FOXO1 FKH L183P. The series can be described thus: EMSA. This is another data set of the same source.

T1 sequence (Q12778 151-265 L183P): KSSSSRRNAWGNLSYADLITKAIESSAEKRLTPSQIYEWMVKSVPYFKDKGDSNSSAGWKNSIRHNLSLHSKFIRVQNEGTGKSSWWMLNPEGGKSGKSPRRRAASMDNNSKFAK

B1: dsIRE (dsDNA)
DNA 1: TAAGCTAGTGGTTTGTTTTGCTTGCTAGCAAT
DNA 2: ATTGCTAGCAAGCAAAACAAACCACTAGCTTA
In turn, B1 registered a Kd in series [1] of 460 ± 100 nM.

B2: dsDBE2 (dsDNA)
DNA 1: TAAGCTAGTCTTGTTTACATTTTGCTAGCAAT
DNA 2: ATTGCTAGCAAAATGTAAACAAGACTAGCTTA
Turning to B2, the Kd in series [2] was 230 nM.
